# In the supplement of paper PMC10567573:
# B1: ZNF207 (parent)
# chain: CHICHKKLYTGPGLAIHCMQVHKE
# Variants of: B1
# Assay: protein stability index of a GFP-peptide fusion (GPS, HEK-293T) (PSI 1-6); higher = more stable
# Settings: c terminus: a fixed tail appended
# 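Also: lentivirally expressed fusions sorted by FACS into six bins by GFP to DsRed ratio, PSI derived from sequencing read proportions per bin multiplied by bin number.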
row,Variant,protein stability index
1,CHICHKKLYTGPGLAIHCMQVEKE [H22E],2.67
2,CHICHKKLYTGPGLAIHCMQVIKE [H22I],2.41
3,CHICHKKLYTGPGLAIHCMQVQKE [H22Q],1.8
4,CHICHKKLYTGPGLAIHCMQVPKE [H22P],3.15
5,CHICHKKLYTGPGLAIHCMQVTKE [H22T],2.48
6,CHICHKKLYTGPGLAIHCMQVDKE [H22D],3.04
7,CHICHKKLYTGPGLAIHCMQVLKE [H22L],2.11
8,CHICHKKLYTGPGLAIHCMQVCKE [H22C],2.64
9,CHICHKKLYTGPGLAIHCMQVNKE [H22N],2.35
10,CHICHKKLYTGPGLAIHCMQVVKE [H22V],2.03
11,CHICHKKLYTGPGLAIHCMQVAKE [H22A],2.65
12,CHICHKKLYTGPGLAIHCMQVKKE [H22K],2.41
13,CHICHKKLYTGPGLAIHCMQVYKE [H22Y],1.45
14,CHICHKKLYTGPGLAIHCMQVFKE [H22F],1.92
15,CHICHKKLYTGPGLAIHCMQVSKE [H22S],1.85
16,CHICHKKLYTGPGLAIHCMQVRKE [H22R],2.11
17,CHICHKKLYTGPGLAIHCMQVWKE [H22W],1.68
18,CHICHKKLYTGPGLAIHCMQVMKE [H22M],2.78
19,CHICHKKLYTGPGLAIHCMQVGKE [H22G],1.88
20,CHICHKKLYTGPGLAIWCMQVHKE [H17W],3.87
21,CHICHKKLYTGPGLAILCMQVHKE [H17L],1.87
22,CHICHKKLYTGPGLAIKCMQVHKE [H17K],2.19
23,CHICHKKLYTGPGLAIPCMQVHKE [H17P],2.78
24,CHICHKKLYTGPGLAIGCMQVHKE [H17G],2.82

row,Variant,protein stability index
1,CHICHKKLYTGPGLAIMCMQVHKE [H17M],2.55
2,CHICHKKLYTGPGLAIVCMQVHKE [H17V],3.01
3,CHICHKKLYTGPGLAITCMQVHKE [H17T],2.7
4,CHICHKKLYTGPGLAINCMQVHKE [H17N],2.25
5,CHICHKKLYTGPGLAICCMQVHKE [H17C],3.87
6,CHICHKKLYTGPGLAIQCMQVHKE [H17Q],2.97
7,CHICHKKLYTGPGLAIECMQVHKE [H17E],3.36
8,CHICHKKLYTGPGLAIICMQVHKE [H17I],2.08
9,CHICHKKLYTGPGLAISCMQVHKE [H17S],3.15
10,CHICHKKLYTGPGLAIYCMQVHKE [H17Y],2.67
11,CHICHKKLYTGPGLAIDCMQVHKE [H17D],2.47
12,CHICHKKLYTGPGLAIRCMQVHKE [H17R],2.22
13,CHICHKKLYTGPGLAIACMQVHKE [H17A],2.15
14,CHICHKKLYTGPGLAIFCMQVHKE [H17F],3.52
15,CHICHKKLYTGPGLAIHCMQVHGE [K23G],3.68
16,CHICHKKLYTGPGLAIHCMQVHQE [K23Q],3.52
17,CHICHKKLYTGPGLAIHCMQVHIE [K23I],2.21
18,CHICHKKLYTGPGLAIHCMQVHAE [K23A],3.14
19,CHICHKKLYTGPGLAIHCMQVHFE [K23F],2.04
20,CHICHKKLYTGPGLAIHCMQVHNE [K23N],4.12
21,CHICHKKLYTGPGLAIHCMQVHVE [K23V],3.19
22,CHICHKKLYTGPGLAIHCMQVHEE [K23E],3.95
23,CHICHKKLYTGPGLAIHCMQVHWE [K23W],2.25
24,CHICHKKLYTGPGLAIHCMQVHSE [K23S],3.35

row,Variant,protein stability index
1,CHICHKKLYTGPGLAIHCMQVHTE [K23T],2.61
2,CHICHKKLYTGPGLAIHCMQVHHE [K23H],3.48
3,CHICHKKLYTGPGLAIHCMQVHRE [K23R],3.13
4,CHICHKKLYTGPGLAIHCMQVHYE [K23Y],2.19
5,CHICHKKLYTGPGLAIHCMQVHME [K23M],3.49
6,CHICHKKLYTGPGLAIHCMQVHPE [K23P],3.04
7,CHICHKKLYTGPGLAIHCMQVHLE [K23L],2.38
8,CHICHKKLYTGPGLAIHCMQVHCE [K23C],3.06
9,CHICHKKLYTGPGLAIHCMQVHDE [K23D],3.87
10,CHICHKKLYTGPGLAIHTMQVHKE [C18T],3.02
11,CHICHKKLYTGPGLAIHNMQVHKE [C18N],2.59
12,CHICHKKLYTGPGLAIHIMQVHKE [C18I],2.06
13,CHICHKKLYTGPGLAIHSMQVHKE [C18S],3.01
14,CHICHKKLYTGPGLAIHGMQVHKE [C18G],2.18
15,CHICHKKLYTGPGLAIHWMQVHKE [C18W],1.93
16,CHICHKKLYTGPGLAIHFMQVHKE [C18F],2.21
17,CHICHKKLYTGPGLAIHKMQVHKE [C18K],3.09
18,CHICHKKLYTGPGLAIHYMQVHKE [C18Y],2.02
19,CHICHKKLYTGPGLAIHQMQVHKE [C18Q],2.99
20,CHICHKKLYTGPGLAIHPMQVHKE [C18P],2.47
21,CHICHKKLYTGPGLAIHLMQVHKE [C18L],3.69
22,CHICHKKLYTGPGLAIHDMQVHKE [C18D],2.75
23,CHICHKKLYTGPGLAIHRMQVHKE [C18R],2.4
24,CHICHKKLYTGPGLAIHHMQVHKE [C18H],2.56

row,Variant,protein stability index
1,CHICHKKLYTGPGLAIHMMQVHKE [C18M],2.47
2,CHICHKKLYTGPGLAIHEMQVHKE [C18E],3.57
3,CHICHKKLYTGPGLAIHVMQVHKE [C18V],2.8
4,CHICHKKLYTGPGLAIHAMQVHKE [C18A],2.62
5,CHICHKKLYTGPGLAIHCMFVHKE [Q20F],3.4
6,CHICHKKLYTGPGLAIHCMSVHKE [Q20S],1.93
7,CHICHKKLYTGPGLAIHCMNVHKE [Q20N],3.85
8,CHICHKKLYTGPGLAIHCMTVHKE [Q20T],3.56
9,CHICHKKLYTGPGLAIHCMDVHKE [Q20D],3.28
10,CHICHKKLYTGPGLAIHCMWVHKE [Q20W],2.92
11,CHICHKKLYTGPGLAIHCMPVHKE [Q20P],2.86
12,CHICHKKLYTGPGLAIHCMYVHKE [Q20Y],3.36
13,CHICHKKLYTGPGLAIHCMEVHKE [Q20E],3.95
14,CHICHKKLYTGPGLAIHCMAVHKE [Q20A],3.4
15,CHICHKKLYTGPGLAIHCMMVHKE [Q20M],3.65
16,CHICHKKLYTGPGLAIHCMLVHKE [Q20L],4
17,CHICHKKLYTGPGLAIHCMRVHKE [Q20R],2.62
18,CHICHKKLYTGPGLAIHCMKVHKE [Q20K],2.75
19,CHICHKKLYTGPGLAIHCMIVHKE [Q20I],3.61
20,CHICHKKLYTGPGLAIHCMVVHKE [Q20V],3.88
21,CHICHKKLYTGPGLAIHCMHVHKE [Q20H],4.04
22,CHICHKKLYTGPGLAIHCMCVHKE [Q20C],4.79
